# Reference: patent US7173005 (dated 2007)
# B1: D815-6aa-G33 (protein)
# chain: WLDQERAWLWCEISGRGCLSGGSGGSGIISQSCPESFYDWFAGQVSDPWWCW
# B2: S255 (peptide)
# chain 1: SDGFYNAIELLSGGGX
# chain 2: SDGFYNAIELLSGGGX
# modifications: listing feature
# B3: S456 (peptide)
# chain 1: XGSLDESFYDWFERQLGKK
# chain 2: XKEWLDQEWAWVQCEVYGRGCPSEE
# modifications: not fully specified; listing feature
# B4: S246 (peptide)
# chain 1: ACAWPTYWNCGGGGX
# chain 2: FHENFYDWFVRQVSKKX
# modifications: listing feature
# How the values were obtained:
# [1] = molecular target: T1, human IGF-1 receptor (IGF-1R) (human, UniProt P08069); experiment: competition
# [2] = molecular target: T1, human IGF-1 receptor (IGF-1R); experiment: competition, TRF vs b-rhIGF-1
# [3] = molecular target: T1, human IGF-1 receptor (IGF-1R); experiment: competition, TR-FRET vs b-20E2
# [4] = molecular target: T1, human IGF-1 receptor (IGF-1R); experiment: competition, TR-FRET vs b-20E2; remark: listed apart in the source
# [5] = molecular target: T1, human IGF-1 receptor (IGF-1R); experiment: competition, AlphaScreen vs b-hIGF-1
# [6] = molecular target: human insulin receptor (HIR) (human, UniProt P06213); experiment: competition
binder,measurement,setting,value
GIISQSCPESFYDWFAGQVSDPWWCW [S326 / G33],Ki,[1],1450 nM
same,IC50,[2],1450 nM
same,IC50,[3],178 nM
FHENFYDWFVQRVSKK [H2C (D117)],IC50,[4],460 nM
GSLDESFYDWFERQLG [S386 / RP9 without terminal lysines],Ki,[1],417 nM
same,IC50,[2],417 nM
same,IC50,[4],39.3 nM
same,IC50,[3],33 nM
VMDARDDPFYHKLSELVT [RP16],IC50,[3],961 nM
TFYSCLASLLTGTPQPNRGPWERCRKK [S327 / RP6KK],IC50,[5],190 nM
B1,Ki,[1],624 nM
same,IC50,[2],624 nM
WLDQERAWLWCEISGRGCLSGGSGGSGSLDESFYDWFERQLGKK [D815-6aa-RP9],Ki,[1],36 nM
same,IC50,[2],35.7 nM
EGSSINLLARAQIVELALEMGVQEE [RP54],IC50,[5],1600 nM
B2,Kd,[6],1600 nM
SQAGSAFYAWFDQVLRTV [RP15],IC50,[3],706 nM
LDALDRLMRYFEERPSL [S173],IC50,[4],6290 nM
DYKDFYDAIDQLVRGSARAGGTRD [20E2 (D118)],IC50,[4],104 nM
same,IC50,[3],100 nM
WLDQERAWLWCEISGRGCLS [rD815],Ki,[1],4080 nM
same,IC50,[2],4080 nM
AAAAFYDWFAAAAAKK [S168],Kd,[6],3800 nM
B3,Kd,[6],2.4 nM
PPWGARFYDAIEQLVFDNL [RP4],IC50,[3],8100 nM
WLDQERAWLWCEISGRGCLSGGSGGSGGSGGSGSLDESFYDWFERQLGKK [D815-12aa-RP9],Ki,[1],3 nM
same,IC50,[2],3.22 nM
HPTSKEIYAKLLK [S122],Kd,[6],9300 nM
CWARPCGDAANFYDWFVQQAS [C1 (D112)],IC50,[4],0.88 nM
same,IC50,[3],10 nM
SFYSCLESLVNGPAEKSRGQWDGCRKK [RP33-IGF],IC50,[5],9 nM
B4,Kd,[6],5000 nM
WLEQERAWIWCEIQGSGCRA [S263 / D8B12],IC50,[4],11300 nM
HDPFYSMMKSLLK [S120],Kd,[6],2000 nM
ANFYDWFVAELG [S242],Kd,[6],2000 nM
SDGFYNAIELLS [S118],Kd,[6],2400 nM
CGFHENFYDWFVRQVSKK [S171],Kd,[6],2900 nM
SAKNFYDWFVKK [A6],IC50,[4],31000 nM
